For three molecules, Kd and dH results are on record in article PMC10116596 (Biochemistry, 2023).

Assay [1] has as its target T1, LcrH_(1–168), class II chaperone LcrH from Y. pestis (Y. pestis, UniProt P21207 1-168).
T1 construct: also called LcrH/SycD
T1 sequence: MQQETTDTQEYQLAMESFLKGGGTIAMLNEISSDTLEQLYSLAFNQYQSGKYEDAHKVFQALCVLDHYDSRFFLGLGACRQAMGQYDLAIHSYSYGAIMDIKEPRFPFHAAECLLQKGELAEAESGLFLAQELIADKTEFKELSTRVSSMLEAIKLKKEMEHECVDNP
Put plainly: ITC. Particulars: both partners purified.

Assay [2] has as its target LcrH. More on the design: method as in PMID 23233673. The conditions noted are these: unbound chaperone weak homodimer; read-out: dimerization KD; cited from earlier work.

With QGVQLPAPLA (source: synthetic peptide) [YopB_(48–57) 10 mer N-terminal anchor peptide of the major translocator YopB], in assay [1], the dissociation constant (Kd) (in general, a measure of binding affinity in units of concentration) turned out to be 155 µM and the dH was -10.5 kcal/mol. In assay [1], QVPELIKPSQ (source: synthetic peptide) [YopD_(56–65) 10 mer N-terminal anchor peptide of the minor translocator YopD] yielded an equilibrium dissociation constant (Kd) of 82 µM and a dH of -12.2 kcal/mol.

B1: LcrH: class II chaperone from Yersina Sp., forms weak homodimers when unbound (protein)
chain: T1 sequence
As for B1, the Kd in assay [2] was about 15 µM.
